This note sets out measurements from PMC5422739.

pKd: −log10 of the molar value.

The target of assay [1] is HTE20 mutant R360A (human) (UniProt P15502). Description: ELISA; HTE truncates, HTE20 mutants or BSA coated (1 μM/well, 0.1 M NaHCO3 pH 9.4), blocked with 3% BSA in PBS; 5 μM GST tagged LigB4 or LigB12 applied 1 h at 37°C; HRP anti-GST; fold over BSA or percent of wild-type HTE20. (In general: ELISA stands for enzyme-linked immunosorbent assay.)
The target of assay [2] is HTE20 mutant Y371A (human) (UniProt P15502). The description is as above.
Assay [3] has as its target HTE20 (20th exon of human tropoelastin) (human) (UniProt P15502). The description is as above.
The target in assay [4] is HTE18 (18th exon of human tropoelastin) (human). The description is as above.
In assay [5] the target is HTE20 mutant F378A (human) (UniProt P15502). Described as above.
Assay [6] concerns the target HTE17-20 (17th to 20th exon of human tropoelastin) (human). The description is as above.
The target in assay [7] is HTE19-20 (19th to 20th exon of human tropoelastin) (human). Described as above.
Assay [8] has as its target HTE20 mutant F381A (human) (UniProt P15502). The assay is described as above.
In assay [9] the target is HTE20N (the first 27 residues of HTE20, amino acids 358–384 of HTE) (human) (UniProt P15502). Description: ELISA; HTE17-20, HTE20, HTE20N, HTE20C or BSA coated (1 μM/well); GST tagged LigB4 or LigB12 titrated 0 to 10 μM, 1 h at 37°C; HRP anti-GST; KD from a saturation fit of OD630.
Chain of HTE20N (the first 27 residues of HTE20, amino acids 358–384 of HTE) (human) (P15502 358-384): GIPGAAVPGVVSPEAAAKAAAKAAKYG
In assay [10] the target is HTE25-27 (25th to 27th exon of human tropoelastin) (human). Description: ELISA; HTE truncates, HTE20 mutants or BSA coated (1 μM/well, 0.1 M NaHCO3 pH 9.4), blocked with 3% BSA in PBS; 5 μM GST tagged LigB4 or LigB12 applied 1 h at 37°C; HRP anti-GST; fold over BSA or percent of wild-type HTE20.
For assay [11], the target named is LigA on the surface of L. biflexa serovar Patoc ligA.
For assay [12], the target named is tag free LigB12 (amino acids 1,047–1,119 in LigB) (L. interrogans serovar Pomona). Description: SPR; Biacore 3000; tag free LigB12 immobilised on CM5 (about 1,000 RU); HTE truncates 0 to 5 μM injected in PBS at 30 μL/min, 25°C; 1:1 Langmuir model. In general terms: In SPR one partner is held on a chip, and binding of the other changes the refractive index at the surface.

The target in assay [13] is LigB12-12-5 chimera (L. interrogans serovar Pomona). Description: ELISA; tag-free LigB5/LigB12 and LigB7/LigB10 chimeras and wild-type domains coated (1 μM/well); 5 μM histidine tagged HTE17-20, HTE20 or HTE20N applied; anti-His detection.
The target in assay [14] is LigB12-5-12 chimera (L. interrogans serovar Pomona). Described as above.
Assay [15] deals with histidine tagged HTE20 (UniProt P15502). In words: ELISA. To be noted: 10 µM His-HTE20 applied to wells coated with LigB12 construct (1 µM/well); detected by anti-His antibodies; parent: est. 0.73; read off a plot.
Chain of histidine tagged HTE20 (P15502 whole entry, looked up): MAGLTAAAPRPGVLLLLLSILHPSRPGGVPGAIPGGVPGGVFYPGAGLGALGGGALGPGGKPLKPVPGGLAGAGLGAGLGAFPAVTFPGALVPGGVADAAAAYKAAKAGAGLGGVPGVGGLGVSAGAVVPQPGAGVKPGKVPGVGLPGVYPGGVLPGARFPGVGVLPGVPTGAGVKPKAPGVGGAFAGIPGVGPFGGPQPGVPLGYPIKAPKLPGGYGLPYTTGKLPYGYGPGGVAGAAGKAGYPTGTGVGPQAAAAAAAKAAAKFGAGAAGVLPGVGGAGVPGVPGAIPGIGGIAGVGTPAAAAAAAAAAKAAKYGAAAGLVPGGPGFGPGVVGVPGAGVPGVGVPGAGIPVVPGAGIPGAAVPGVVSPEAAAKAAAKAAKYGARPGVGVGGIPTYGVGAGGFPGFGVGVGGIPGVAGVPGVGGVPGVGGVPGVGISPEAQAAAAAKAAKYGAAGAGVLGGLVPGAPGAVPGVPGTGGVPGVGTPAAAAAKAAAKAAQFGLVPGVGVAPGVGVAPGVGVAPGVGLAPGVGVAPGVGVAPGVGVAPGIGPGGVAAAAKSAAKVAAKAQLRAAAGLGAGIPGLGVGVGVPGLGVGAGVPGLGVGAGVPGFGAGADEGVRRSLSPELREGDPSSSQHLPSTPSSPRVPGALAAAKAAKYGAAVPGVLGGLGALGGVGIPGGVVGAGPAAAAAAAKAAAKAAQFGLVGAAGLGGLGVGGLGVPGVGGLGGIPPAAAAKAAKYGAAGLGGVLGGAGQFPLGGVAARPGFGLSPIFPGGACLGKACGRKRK
Assay [16] concerns the target histidine tagged HTE20N (UniProt P15502). Description: ELISA. To be noted: 10 µM His-HTE20N applied to wells coated with LigB12 construct (1 µM/well); detected by anti-His antibodies; parent: est. 1.05; read off a plot.

As usually defined, the pKd is the Kd on a negative log10 scale, so that one unit is a factor of ten. As usually defined, the koff is the rate constant with which the complex falls apart. By kon is commonly meant the rate constant with which the complex forms. A lower kon goes with slower complex formation.

Chain of HTE17-20 (17th to 20th exon of human tropoelastin) (human) (P15502 297-438): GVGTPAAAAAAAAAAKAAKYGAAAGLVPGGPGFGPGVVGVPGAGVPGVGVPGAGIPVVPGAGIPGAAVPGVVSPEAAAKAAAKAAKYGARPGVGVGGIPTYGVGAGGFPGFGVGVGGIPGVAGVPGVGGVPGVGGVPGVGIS
Chain of HTE20 (20th exon of human tropoelastin) (human) (P15502 358-412): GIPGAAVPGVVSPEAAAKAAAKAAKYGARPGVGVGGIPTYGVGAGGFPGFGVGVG
Chain of histidine tagged HTE20N (P15502 whole entry, looked up): as the sequence (P15502 whole entry, looked up) above

Regarding “GST tagged LigB4 (amino acids 307–403 in LigB) (domain or fragment)”, the percent of wild-type HTE20 binding in assay [1] came to 32%; in assay [5] it was 35%. The results for the percent decrease of binding against wild-type HTE20 in assay [2] and in assay [8] were 61% and 54%, respectively. Also, the fold binding over BSA (negative control) in [3] was 4.4 fold; in assay [4] it was 2 fold; in assay [6], 5.7 fold; in [7], 4.5 fold. The pKd in assay [9] is 6.07.
With “GST tagged LigB12 (amino acids 1,047–1,119 in LigB) (domain or fragment)”, the figures for the percent decrease of binding against wild-type HTE20 in assay [1] and in [5] were 54% and 62%, respectively. For the same substance, the percent of wild-type HTE20 binding in assay [2] and in [8] was 35% throughout. Also, the fold binding over BSA (negative control) in assay [3] is 4.4 fold; in [4], 2 fold; in assay [6] it was 5.7 fold; in [10], 3 fold; in assay [7], 4.5 fold. In [9], this substance had a pKd of 6.07.
As to “HTE17-20 (17th to 20th exon of human tropoelastin) (domain or fragment)”, in [11], the inhibition of the adhesion of LigA-expressing L. biflexa (Patoc ligA) to WI-38 cells after pre-incubation with HTE17-20, 10 to 0.156 μM; ELISA with hamster anti-L. biflexa sera turned out to be 61%.
As for “HTE19-20 (19th to 20th exon of human tropoelastin) (domain or fragment)”, in assay [12], the pKd was 5.87, the koff turned out to be 0.0043 s⁻¹ and the kon is 3100 M⁻¹ s⁻¹.
On to “histidine tagged HTE17-20 (domain or fragment)”, for which the figures for the percent of wild-type LigB12 binding in assay [13] and in assay [14] were 90% and 80%, respectively.
Take “tag free LigB12 (amino acids 1,047–1,119 in LigB) A1065K”: the figures for the response in assay [15] and in assay [16] were 0.11 OD630 and 0.09 OD630, respectively.
